Laboratory results from patent US20100204147A1, “Methods For Delivering Thymosin Beta 4, Analogues, Isoforms and Other Derivatives” (REGENERX BIOPHARMACEUTICALS, INC., priority 2003, published 2010).

Columns and labels:
[1] = molecular target: T1, fibrinogen (Homo sapiens, UniProt P02671); test: Factor XIIIa-mediated incorporation of FITC-labeled thymosin β4 into fibrinogen (spectrophotometric); format: biochemical; settings: fibrinogen 9 μM, thymosin β4 30 μM, factor XIIIa, 4 hours, 37° C.
T1 construct: purchased Enzyme Research Laboratories (South Bend, Ind.)
T1 sequence (P02671 20-644 isoform P02671-2 limits assumed): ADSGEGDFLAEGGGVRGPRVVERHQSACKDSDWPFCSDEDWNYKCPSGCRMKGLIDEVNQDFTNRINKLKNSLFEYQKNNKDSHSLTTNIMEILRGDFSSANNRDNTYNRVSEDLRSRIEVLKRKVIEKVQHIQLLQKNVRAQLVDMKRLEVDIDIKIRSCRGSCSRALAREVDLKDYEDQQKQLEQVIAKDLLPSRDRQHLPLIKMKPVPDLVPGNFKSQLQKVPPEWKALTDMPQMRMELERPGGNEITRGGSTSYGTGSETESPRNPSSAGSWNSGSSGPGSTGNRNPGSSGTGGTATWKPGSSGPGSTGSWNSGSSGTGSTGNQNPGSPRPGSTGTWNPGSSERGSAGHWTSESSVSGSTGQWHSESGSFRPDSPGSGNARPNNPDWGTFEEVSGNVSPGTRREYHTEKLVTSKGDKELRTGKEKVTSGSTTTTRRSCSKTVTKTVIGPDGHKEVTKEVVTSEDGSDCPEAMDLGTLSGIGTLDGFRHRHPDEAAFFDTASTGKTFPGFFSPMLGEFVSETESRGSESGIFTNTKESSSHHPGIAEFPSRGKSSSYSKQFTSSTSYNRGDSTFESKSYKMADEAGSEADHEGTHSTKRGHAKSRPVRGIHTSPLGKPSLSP
T1 sequence (P02675 31-491 partner): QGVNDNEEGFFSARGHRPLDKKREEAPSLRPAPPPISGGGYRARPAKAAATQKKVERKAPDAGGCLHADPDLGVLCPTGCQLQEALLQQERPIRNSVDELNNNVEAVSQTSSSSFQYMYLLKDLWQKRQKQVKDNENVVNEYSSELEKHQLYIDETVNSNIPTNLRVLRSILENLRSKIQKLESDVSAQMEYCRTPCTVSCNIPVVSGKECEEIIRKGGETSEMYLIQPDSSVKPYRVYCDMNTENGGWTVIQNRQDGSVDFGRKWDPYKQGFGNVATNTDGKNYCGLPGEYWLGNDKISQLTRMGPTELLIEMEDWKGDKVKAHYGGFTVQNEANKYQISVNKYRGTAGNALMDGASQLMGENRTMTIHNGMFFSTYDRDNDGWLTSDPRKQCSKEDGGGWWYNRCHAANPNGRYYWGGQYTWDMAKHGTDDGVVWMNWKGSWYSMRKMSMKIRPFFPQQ
T1 sequence (P02679 27-437 isoform P02679-2 partner limits assumed): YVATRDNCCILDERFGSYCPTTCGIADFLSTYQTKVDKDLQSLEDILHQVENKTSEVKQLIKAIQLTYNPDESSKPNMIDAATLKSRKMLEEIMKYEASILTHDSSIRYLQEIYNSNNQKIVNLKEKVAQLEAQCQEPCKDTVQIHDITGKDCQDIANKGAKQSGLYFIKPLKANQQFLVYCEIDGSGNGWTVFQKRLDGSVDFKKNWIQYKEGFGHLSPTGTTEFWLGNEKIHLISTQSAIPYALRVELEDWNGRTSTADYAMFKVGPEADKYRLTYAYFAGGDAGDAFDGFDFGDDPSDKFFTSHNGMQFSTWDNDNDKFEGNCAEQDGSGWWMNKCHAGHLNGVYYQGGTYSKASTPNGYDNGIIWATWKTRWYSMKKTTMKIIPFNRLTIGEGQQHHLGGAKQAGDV
Experimental: (§1) Reactions of incorporation of FITC-labeled and unlabeled thymosin β4 into fibrinogen and fibrin were performed in Eppendorf tubes containing a mixture of fibrinogen at 3 mg/mL (9 μM) and thymosin β4 or FITC-labeled thymosin β4 at […] (30 μM) in 100 μL TBS with 2.5 mM CaCl2. The reactions were initiated by addition of FXIIIa(Ca) or FXIIIa(Thr) to final concentration of 30 μg/mL. The final concentration of thrombin in the FXIIIa(Thr)-containing mixtures was made at 2.5 NIH u/mL, sufficient to rapidly form fibrin clot which was observed visually. The reactions with FITC-labeled thymosin β4 lasted for 4 hours at 37° C. in the dark and were stopped by heat inactiviation of the enzymes in boiling water for 5 min during fibrinogen and fibrin denatured and precipitated. The pellets were centrifuged and washed 3 times in TBS and then solubilized. The amounts of fibrin(ogen) and FITC-labeled thymosin β4 in the solubilized pellet were determined spectrophotomertrically using absorption molar coefficients E280,1%=15.0 and ε495=72,000 M^−1cm^−1, respectively. To prepare samples with unlabeled thymosin β4 for analysis by SDS-PAGE and Western blot the reaction mixtures at the indicated time were heat-inactivated as above and solubilized by addition of sample buffer (Invitrogen) containing SDS and reducing agent.

[2] = molecular target: T2, fibrin (Homo sapiens, UniProt P02671); test: Factor XIIIa-mediated incorporation of FITC-labeled thymosin β4 into fibrin (spectrophotometric); format: biochemical; settings: fibrinogen 9 μM, thymosin β4 30 μM, factor XIIIa with thrombin, 4 hours, 37° C.
T2 construct: purchased Enzyme Research Laboratories (South Bend, Ind.); host or cells: fibrin generated in the well or tube from the purchased fibrinogen with bovine thrombin
T2 sequence (P02671 36-629): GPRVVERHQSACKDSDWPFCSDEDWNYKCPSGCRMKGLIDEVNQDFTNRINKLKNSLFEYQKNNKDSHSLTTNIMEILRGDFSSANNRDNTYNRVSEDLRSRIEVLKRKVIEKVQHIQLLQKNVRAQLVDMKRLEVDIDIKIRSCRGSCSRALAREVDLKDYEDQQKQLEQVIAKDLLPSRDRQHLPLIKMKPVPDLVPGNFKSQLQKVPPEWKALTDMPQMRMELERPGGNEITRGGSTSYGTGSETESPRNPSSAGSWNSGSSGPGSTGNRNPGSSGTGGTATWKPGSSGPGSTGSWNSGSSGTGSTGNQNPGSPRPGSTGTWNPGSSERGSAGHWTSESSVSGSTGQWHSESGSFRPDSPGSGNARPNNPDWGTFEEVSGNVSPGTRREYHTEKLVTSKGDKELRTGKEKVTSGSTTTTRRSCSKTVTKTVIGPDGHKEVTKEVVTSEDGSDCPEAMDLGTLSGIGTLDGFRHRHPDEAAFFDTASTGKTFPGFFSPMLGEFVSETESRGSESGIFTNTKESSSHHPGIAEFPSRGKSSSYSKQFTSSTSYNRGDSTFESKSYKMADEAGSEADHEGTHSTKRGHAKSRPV
T2 sequence (P02675 45-491 partner): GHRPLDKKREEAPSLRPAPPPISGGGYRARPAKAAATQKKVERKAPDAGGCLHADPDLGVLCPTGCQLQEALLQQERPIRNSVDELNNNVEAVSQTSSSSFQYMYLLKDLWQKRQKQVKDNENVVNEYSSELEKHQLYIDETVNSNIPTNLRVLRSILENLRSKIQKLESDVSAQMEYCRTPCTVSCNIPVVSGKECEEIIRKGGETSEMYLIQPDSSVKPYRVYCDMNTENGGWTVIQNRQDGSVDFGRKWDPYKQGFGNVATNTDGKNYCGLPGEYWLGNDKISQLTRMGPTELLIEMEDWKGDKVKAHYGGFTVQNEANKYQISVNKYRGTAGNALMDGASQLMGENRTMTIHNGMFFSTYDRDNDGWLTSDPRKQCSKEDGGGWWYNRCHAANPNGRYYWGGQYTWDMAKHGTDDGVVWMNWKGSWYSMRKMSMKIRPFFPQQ
T2 sequence (P02679 27-437 isoform P02679-2 partner): T1 sequence (P02679 27-437 isoform P02679-2 partner limits assumed)
Experimental: as §1

degree of incorporation into fibrinogen [1]: about 0.2 moles per mole
degree of incorporation into fibrin [2]: ~0.4 moles per mole
Substance: FITC-thymosin β4: Fluorescence labeled thymosin β4 prepared by reaction with fluorescein isothiocyanate; 0.9 mole of FITC per mole of thymosin β4 [reference compound]
